Results on five molecules are retold here after patent US20200407704, “FUSION PROTEINS AND METHODS FOR SITE-DIRECTED GENOME EDITING” (The Regents of the University of California, published 2020).

Data set [1] has as its system hADAR2d (ADAR2 deaminase domain, hADAR2-D WT) (Homo sapiens). The note with it: DNA strand of hybrid, 250 nM, 60 min.
Data set [2] has as its system HBD-ADAR2 deaminase fusion (RNase H1 hybrid binding domain) (Homo sapiens). The note with it: DNA strand of hybrid, 250 nM, 60 min.
In the next data set the target is T1, hADAR1d E1008Q (Homo sapiens, UniProt P55265 SEQ:833-1226).
T1 chain: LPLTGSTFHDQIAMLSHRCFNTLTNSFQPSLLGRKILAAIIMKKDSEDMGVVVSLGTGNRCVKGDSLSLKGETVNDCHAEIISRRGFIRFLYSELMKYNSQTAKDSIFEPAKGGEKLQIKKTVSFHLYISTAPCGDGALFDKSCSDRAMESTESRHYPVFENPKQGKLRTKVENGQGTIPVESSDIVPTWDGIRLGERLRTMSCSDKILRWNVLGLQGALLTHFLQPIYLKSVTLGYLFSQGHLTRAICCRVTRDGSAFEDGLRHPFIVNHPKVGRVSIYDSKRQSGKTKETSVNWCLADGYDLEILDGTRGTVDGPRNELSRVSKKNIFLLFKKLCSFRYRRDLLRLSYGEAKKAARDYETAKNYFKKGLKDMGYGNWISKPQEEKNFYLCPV
Briefly: 500 nM, 2 h. The note with it: dA-C mismatch. The method, then: M13 genomic ssDNA (New England Biolabs) was hybridized with the corresponding guide RNAs. The guide RNA to genomic DNA molar ratio was 20:1 for each hybridization. Deamination reactions were carried out as previously described (21) with the following modifications. The final reaction volume was 10 μL. hADAR1d E1008Q was used for the reaction and the final enzyme concentration was 500 nM. The final RNA concentration was 2.8 nM. The final reaction solution contained 13 mM Tris-HCl, pH 7.2, 3.6% glycerol, 1.2 mM EDTA, 0.002% NP-40, 40.5 mM potassium glutamate, 12.5 mM KCl, 6 mM NaCl, 0.6 mM DTT, 160 units/mL RNasin, and 1 μg/mL yeast tRNA. Reactions were quenched by adding 190 μL 95° C. nuclease-free water followed by incubation at 95° C. for 5 minutes. The target regions of the reaction products were PCR amplified with primers using GoTaq® DNA Polymerase (Promega). PCR products were purified by agarose gel, extracted using a QIAquick Gel Extraction Kit (Qiagen), and sequenced with the forward PCR primers. The sequencing peak heights were measured with Chromas for calculating the editing level. Each experiment was carried out in triplicate. The editing level for the corresponding zero time point was subtracted from each data point as background subtraction. Statistical significance between groups was determined by t tests using QuickCalcs (GraphPad Software).

On to “DNA/RNA hybrid duplex used with HBD fusion”, for which the activity in data set [1] stood at 35 % edited; in data set [2] it was 90 % edited.

B1: M13 AAG site + guide RNA (DNA:RNA)
DNA: CCAAATGGCTCAAGTCGGTGACGG
RNA: CCGUCACCGACCUGAGCCAUUUGG
As to B1, the activity with hADAR1d E1008Q was 81 % edited.

B2: M13 CAC site + guide RNA (DNA:RNA)
DNA: CTTTCTATTCTCACTCCGCTGAAA
RNA: UUUCAGCGGAGCGAGAAUAGAAAG
B2 came in with an activity with hADAR1d E1008Q of 53 % edited.

B3: M13 GAA site + guide RNA (DNA:RNA)
DNA: AGGCCAGACGCGAATTATTTTTGA
RNA: UCAAAAAUAAUCCGCGUCUGGCCU
Molecule B3 came in with an activity with hADAR1d E1008Q of 27 % edited.

B4: M13 TAG site + guide RNA (DNA:RNA)
DNA: CCTCGCGTTCTTAGAATACCGGAT
RNA: AUCCGGUAUUCCAAGAACGCGAGG
In the data set with hADAR1d E1008Q, B4 had an activity of 94 % edited.
